The assay has as its target NG19 (Non-Glycosylated protein of 19 kDa, S371 to F541 of the SARS-CoV-2 Spike protein RBD) (SARS-CoV-2) (UniProt P0DTC2). Description: Tricine-SDS-PAGE under non-reducing conditions.

What is called stoichiometry N is a count of units in the complex or per binding partner.

Substance “NG19 (Non-Glycosylated protein of 19 kDa, S371 to F541 of the SARS-CoV-2 Spike protein RBD) (from UniProt P0DTC2 371-541) (domain or fragment)” displayed a stoichiometry N of 2.
